# Data taken from patent publication US20250206843A1 (NATIONAL INSTITUTE FOR BIOTECHNOLOGY IN THE NEGEV, published 2025).
# B1: Nb38 (VHH)
# VHH: QVQLQESGGGSVQAGGSLKLSCVASGFTRSMGWARQAPGKEREGVVCINNYNIGSGKWYADSVKGRFTISRDNDKNTVSLQMNSLKPEDTAIYYCAASPLYLCDNSSWFAAGFAAGSHVWGQGTQVTVSS
# notes: Camel VHH expressed from pMECS (C-terminal HA and 6xHis tags) and purified on Ni-NTA; also called N38
# B2: Nb46 (VHH)
# VHH: QVQLQESGGGSVQAGGSLRLSCVVSGYFYYDHYYVAWFRQAPGKEREGVALINGRDSDTYYADSVKGRFTISQDSAKNTVYLQMNSLKPEDTAIYYCAANPGEAFTVLPPRVFRNWGQGTQVTVSS
# notes: also called N46
# B3: Nb46-AF647 (VHH)
# VHH: B2 VHH
# modifications: Alexa Fluor 647 (NHS ester), approximately 1 mole dye/mole NB; labelled residue not stated
# notes: also called N46-Af647
# Legend:
# [1] = target: T1, human epidermal growth factor receptor 2 (HER2), on cells (human, UniProt P04626 23-1255); assay: flow cytometry on cells expressing HER2
# T1 construct: whole, on cells; Target of the flow cytometry and imaging experiments (HEK 293 cells expressing HER2; SkBr3 cells); also called ErbB2; HER2 receptor
# human HER3, on cells [2] = target: T2, human HER3, on cells (human, UniProt P21860 20-1342); assay: flow cytometry on cells expressing HER3
# T2 construct: whole, on cells; also called ErbB3
# T2 sequence (P21860 20-1342): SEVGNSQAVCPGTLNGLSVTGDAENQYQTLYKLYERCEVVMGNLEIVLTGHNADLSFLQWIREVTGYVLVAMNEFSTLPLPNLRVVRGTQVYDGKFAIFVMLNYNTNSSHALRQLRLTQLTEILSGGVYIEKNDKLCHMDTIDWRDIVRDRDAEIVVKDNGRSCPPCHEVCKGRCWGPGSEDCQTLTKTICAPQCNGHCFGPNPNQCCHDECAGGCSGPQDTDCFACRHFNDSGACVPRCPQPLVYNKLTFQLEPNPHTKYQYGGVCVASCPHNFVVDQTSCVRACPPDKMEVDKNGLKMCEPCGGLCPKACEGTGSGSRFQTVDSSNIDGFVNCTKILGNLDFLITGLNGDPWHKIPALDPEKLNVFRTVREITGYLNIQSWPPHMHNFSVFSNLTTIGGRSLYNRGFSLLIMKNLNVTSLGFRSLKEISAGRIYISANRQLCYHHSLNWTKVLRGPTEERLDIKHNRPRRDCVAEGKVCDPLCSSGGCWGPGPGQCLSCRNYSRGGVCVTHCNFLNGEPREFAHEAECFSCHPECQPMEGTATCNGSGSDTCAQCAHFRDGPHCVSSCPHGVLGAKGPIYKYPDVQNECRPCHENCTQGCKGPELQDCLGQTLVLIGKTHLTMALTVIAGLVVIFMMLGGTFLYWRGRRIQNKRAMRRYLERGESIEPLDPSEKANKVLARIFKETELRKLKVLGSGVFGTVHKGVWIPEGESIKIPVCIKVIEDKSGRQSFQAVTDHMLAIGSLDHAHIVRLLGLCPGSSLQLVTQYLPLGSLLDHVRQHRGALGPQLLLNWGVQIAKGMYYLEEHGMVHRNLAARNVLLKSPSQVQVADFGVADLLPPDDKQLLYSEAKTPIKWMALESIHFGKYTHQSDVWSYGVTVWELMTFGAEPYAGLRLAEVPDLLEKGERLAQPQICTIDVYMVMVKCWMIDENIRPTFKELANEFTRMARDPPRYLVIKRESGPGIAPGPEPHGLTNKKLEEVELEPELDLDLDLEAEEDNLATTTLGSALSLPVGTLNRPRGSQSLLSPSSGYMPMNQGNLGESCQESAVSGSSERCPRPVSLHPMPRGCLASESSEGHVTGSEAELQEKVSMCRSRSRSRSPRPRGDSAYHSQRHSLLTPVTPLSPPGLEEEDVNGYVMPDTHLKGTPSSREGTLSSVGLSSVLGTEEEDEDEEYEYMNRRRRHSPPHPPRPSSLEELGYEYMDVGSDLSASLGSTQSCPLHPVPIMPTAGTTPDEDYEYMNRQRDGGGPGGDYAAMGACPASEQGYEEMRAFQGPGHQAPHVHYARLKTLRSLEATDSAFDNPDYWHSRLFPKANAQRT
# [3] = target: T3, HER2 and HER3 co-expressed on cells (HER2/3) (human, UniProt P04626 23-1255; P21860 20-1342); assay: flow cytometry on cells co-expressing HER2 and HER3
# T3 construct: whole, on cells; Dubca camel fibroblasts in the periplasmic ELISA screen; also called HER2/HER3
# [4] = target: T4, human HER3-His extracellular-domain protein (human, UniProt P21860 20-643); assay: SPR, Biacore T200, both orientations
# T4 construct: extracellular domain; Bought protein; not shown: His tag
# T4 sequence (P21860 20-643): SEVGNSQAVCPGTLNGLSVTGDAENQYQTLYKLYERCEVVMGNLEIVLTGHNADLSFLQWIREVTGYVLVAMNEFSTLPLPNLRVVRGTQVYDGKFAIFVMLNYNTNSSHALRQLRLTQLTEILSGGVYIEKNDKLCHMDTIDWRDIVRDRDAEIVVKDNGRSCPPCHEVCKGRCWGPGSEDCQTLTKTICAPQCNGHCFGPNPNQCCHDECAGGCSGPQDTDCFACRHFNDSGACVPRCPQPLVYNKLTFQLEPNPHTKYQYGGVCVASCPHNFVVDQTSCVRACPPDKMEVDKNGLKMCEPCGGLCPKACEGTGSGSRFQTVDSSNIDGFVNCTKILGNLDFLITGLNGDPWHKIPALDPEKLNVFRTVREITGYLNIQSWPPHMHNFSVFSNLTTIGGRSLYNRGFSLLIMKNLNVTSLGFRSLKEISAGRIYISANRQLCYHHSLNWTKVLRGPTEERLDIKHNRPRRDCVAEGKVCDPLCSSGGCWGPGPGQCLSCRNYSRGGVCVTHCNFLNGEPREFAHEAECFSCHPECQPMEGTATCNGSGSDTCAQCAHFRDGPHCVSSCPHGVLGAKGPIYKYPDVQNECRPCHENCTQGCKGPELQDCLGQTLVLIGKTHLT
# Protocol: (§1) SPR binding assay—The affinity of Nbs to HER2 or HER3 was determined in two ways by using surface plasmon resonance (SPR) spectroscopy. SPR measurements were performed on a Biacore T200 instrument. In one layout, purified Nb38 (10 μg/ml) and Nb46 (20 μg/ml) were immobilized on a CM5 chip using an amine coupling kit (GE Healthcare, Chicago, IL). The analytes, human HER2-His or HER3-His extracellular-domain proteins (R&D systems, Minneapolis, MN) dissolved in PBST (PBS supplemented with 0.05% Tween-20 v/v), were flown at 30 μl/min, and the chip was regenerated using 2 mM NaOH. In a second layout, the purified human HER2-His or HER3-His extracellular-domain proteins, at 10 μg/ml, were immobilized on a CM5 chip). The analytes, NB46 and NB38 (and NB7 as a negative control), were flown at 30 μl/min in PBST, and the chip was regenerated using 20 mM glycine. Binding was allowed for 180 s and dissociation for 600 s. Curves were fitted using Biacore's evaluation software using a 1:1 ligand:analyte binding model to retrieve association rate constants (ka), dissociation rate constants (kd), and equilibrium dissociation constants (KD, a measurement of affinity).
# [5] = target: T5, human HER2-His extracellular-domain protein (human, UniProt P04626 23-652); assay: SPR, Biacore T200; average of the two orientations
# T5 construct: extracellular domain; Bought protein; also called recombinant HER2; not shown: His tag
# Protocol: as §1
# [6] = target: T1, human epidermal growth factor receptor …; assay: flow cytometry titration on SkBr3 HER2+ breast cancer cells
# Protocol: (§2) FIGS. 6A-6D. Nb46 binding to HER2 cell-receptors by FACS analysis. […] The fluorescent signal was subtracted from that of cells incubated with the antibody alone and normalized relative to the highest signal (FIG. 6B), n=3. FIG. 6C—Affinity binding of NB46 with SkBr3 cells conducted with and without 1.8 mM Neuregulin-1 (NRG) following 1 hour incubation. Data was fitted with a sigmoidal curve in Excel (dashed lines), n=3.
# (§3) Nb46 binding of HER2+ cancer cells—SkBr3 cells were grown to 70-90% confluency in T-75 flasks overnight. The cells were detached by aspirating the medium and washing cells with 10 mL hot PBS before pipetting 5 mL of non-enzymatic cell dissociation solution (Biological Industries, Beit Haemek, Israel) and incubating for 5 minutes at 37° C. […] The cells were Incubated for 1 h at 4° C. on a tubes rotator after which the cells were washed off of unbound Nb; cells were centrifuged at 350 g for 5 minutes, supernatant discarded, and cells resuspend in 900 μL of PBS-FBS, repeatedly for 3 times. After the 3rd centrifugation, the cells were resuspended in 300 μL PBS-FBS containing iFluor488-conjugated anti-camelid VHH (1:1000, Genescript, NJ, USA), and incubated for additional 1 h at 4° C. on a tubes rotator, in the dark. […]
# [7] = target: T5, human HER2-His extracellular-domain …; assay: SPR, Biacore T200; HER2 immobilized (ligand), Nb46 as analyte
# Protocol: as §1
# [8] = target: T5, human HER2-His extracellular-domain …; assay: SPR, Biacore T200; Nb46 immobilized (ligand), HER2 as analyte
# Protocol: as §1
# [9] = target: T5, human HER2-His extracellular-domain …; assay: SPR, Biacore T200; average of the two orientations; average of the two orientations
# Protocol: as §1
# [10] = target: T1, human epidermal growth factor receptor …; assay: flow cytometry on HEK 293 cells expressing HER2, anti-VHH-488 detection, n=3
# Protocol: as §2
# human HER3, on cells [11] = target: T2, human HER3, on cells; assay: flow cytometry on HEK 293 cells expressing HER3, anti-VHH-488 detection, n=3
# [12] = target: T1, human epidermal growth factor receptor …; assay: flow cytometry on SkBr3 cells without Neuregulin-1, anti-VHH-488 detection, n=3
# Protocol: as §2, §3
# [13] = target: T5, human HER2-His extracellular-domain …; assay: SPR, Biacore T200; HER2-His ECD immobilized, Nb46 as analyte; HER2 immobilized, Nb46 as analyte
# Protocol: as §1
# [14] = target: T5, human HER2-His extracellular-domain …; assay: SPR, Biacore T200; Nb46 immobilized, HER2-His ECD as analyte; Nb46 immobilized, HER2 as analyte
# Protocol: as §1
# [15] = target: T3, HER2 and HER3 co-expressed on cells …; assay: flow cytometry on HEK 293 cells expressing HER2 and HER3, anti-VHH-488 detection, n=3
# Protocol: as §2
# [16] = target: T1, human epidermal growth factor receptor …; assay: flow cytometry on HEK 293 cells expressing HER2, anti-VHH-488 detection, signal normalised to the highest signal, n=3
# Protocol: as §2
# [17] = target: T1, human epidermal growth factor receptor …; assay: flow cytometry on SkBr3 cells in the presence of Neuregulin-1 (NRG; the legend prints 1.8 mM), anti-VHH-488 detection, n=3
# Protocol: as §2, §3
# [18] = target: T3, HER2 and HER3 co-expressed on cells …; assay: flow cytometry on HEK 293 cells expressing HER2 and HER3, anti-VHH-488 detection, signal normalised to the highest signal, n=3
# Protocol: as §2
# [19] = target: T1, human epidermal growth factor receptor …; assay: flow cytometry on SkBr3 cells, Nb46-AF647 detected with secondary anti-VHH-488 antibody
# Protocol: as §2, §3
binder,measurement,setting,value
B1,binding result,[1],no binding
same,binding result,"human HER3, on cells [2]",no binding
same,binding result,[3],no binding
B2,binding result,[4],no binding
same,koff,[5],0.00187 s⁻¹
same,kon,[5],9.42e+06 M⁻¹ s⁻¹
same,Kd,[6],0.8 nM
same,koff,[7],0.00154 s⁻¹
same,kon,[7],6.26e+06 M⁻¹ s⁻¹
same,koff,[8],0.00221 s⁻¹
same,kon,[8],1.26e+07 M⁻¹ s⁻¹
same,Kd,[9],0.21 nM
same,EC50 (read off the curve),[10],~0.8 nM
same,binding result,"human HER3, on cells [11]",no binding (tested: 25 nM)
same,EC50 (read off the curve),[12],~0.9 nM
same,Kd,[13],0.24 nM
same,Kd,[14],0.17 nM
same,EC50 (read off the curve),[15],~0.9 nM
same,EC50 (read off the curve),[16],~0.8 nM
same,EC50 (read off the curve),[17],~0.8 nM
same,EC50 (read off the curve),[18],~0.8 nM
B3,binding result,[19],binds
